{
  "source": "patent US20140274782A1",
  "about": "(Stanford University, published 2014)",
  "biological_target": "T1, GHRL-ghrelin/obestatin preprohormone (GHRL) (human, UniProt Q9UBU3 1-117, limits assumed)",
  "T1 sequence (looked up)": "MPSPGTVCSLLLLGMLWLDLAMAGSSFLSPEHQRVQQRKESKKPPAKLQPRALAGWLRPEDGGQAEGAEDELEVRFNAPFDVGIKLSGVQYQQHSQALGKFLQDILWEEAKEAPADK",
  "assay": "ProtoArray, GST-treated control array",
  "procedure": "Briefly, a ProtoArray (Invitrogen, version 5.0) was incubated overnight with 50 μg of GST or recombinant GSTtagged G9a SET domain and the cofactor SAM.\nArrays were analyzed using GenePix Pro 6.1 software (Molecular Devices) and feature values were assigned to proteins using the array list provided by Invitrogen. We designated the following criteria for “hits”: GST array signal-to-noise ratio (SNR) less than or equal to 1.5, G9a array SNR greater than or equal to 10, and a difference between the G9a array SNR and the GST array SNR of greater than or equal to 12. Hits were individually visually validated. Proteins were removed from the list of potential substrates if irregular array features appeared to interfere with the array spots or SNR calculations.",
  "data": [
    {"binder": "3× Flag-3×MBT (designed binder, also called Flag-tagged 3×MBT; 3xFlag-3xMBT; not shown: made by PreScission cleavage of GST-3× Flag-3×MBT) EEWSSSQPATGEKKECWSWESYLEEQKAITAPVSLFQDSQAVTHNKNGFKLGMKLEGIDPQHPSMYFILTVAEVCGYRLRLHFDGYSECHDFWVNANSPDIHPAGWFEKTGHKLQPPKGYKEEEFSWSQYLRSTRAQAAPKHLFVSQSHSPPPLGFQVGMKLEAVDRMNPSLVCVASVTDVVDSRFLVHFDNWDDTYDYWCDPSSPYIHPVGWCQKQGKPLTPPQDYPDPDNFCWEKYLEETGASAVPTWAFKVRPPHSFLVNMKLEAVDRRNPALIRVASVEDVEDHRIKIHFDGWSHGYDFWIDADHPDIHPAGWCSKTGHPLQPPLGPREPSSASPGG", "values": [
      {"measurement": "binding result", "result": "no binding (tested: GST array SNR <= 1.5)"}
    ]}
  ]
}
